# Tests used:
# [1] = target: Mj-AMP2 (Mirabilis jalapa--Antimicrobial Protein 2) (Mirabilis jalapa)
# [2] = target: Mj-AMP1 (Mirabilis jalapa--Antimicrobial Protein 1) (Mirabilis jalapa)
substance,measurement,setting,value
Proteinase K (from UniProt P06873) (enzyme),Relative antifungal activity (shown as % of control activity) after Proteinase K digestion (% of control activity),[1],100
same,Relative antifungal activity (shown as % of control activity) after Proteinase K digestion (% of control activity),[2],100
Pronase E (enzyme),Relative antifungal activity (shown as % of control activity) after Pronase E digestion (% of control activity),[1],25
same,Relative antifungal activity (shown as % of control activity) after Pronase E digestion (% of control activity),[2],50
Trypsin (enzyme),Relative antifungal activity (shown as % of control activity) after Trypsin digestion (% of control activity),[1],100
same,Relative antifungal activity (shown as % of control activity) after Trypsin digestion (% of control activity),[2],75
Chymotrypsin (enzyme),Relative antifungal activity (shown as % of control activity) after Chymotrypsin digestion (% of control activity),[1],50
same,Relative antifungal activity (shown as % of control activity) after Chymotrypsin digestion (% of control activity),[2],12
